# From publication PMC10814836
# Target: lamin A/C (human (endogenous in primary myoblasts)) (UniProt P02545)
# Assay: proximity ligation; in situ PLA (Duolink) on methanol-fixed human myoblasts after uniaxial cyclic stretching (10% strain, 1 Hz, 4 h); anti-lamin A/C with anti-desmin or anti-plectin 1; 100 nuclei counted per replicate
# UniProt P02545, sequence (P02545 1-646): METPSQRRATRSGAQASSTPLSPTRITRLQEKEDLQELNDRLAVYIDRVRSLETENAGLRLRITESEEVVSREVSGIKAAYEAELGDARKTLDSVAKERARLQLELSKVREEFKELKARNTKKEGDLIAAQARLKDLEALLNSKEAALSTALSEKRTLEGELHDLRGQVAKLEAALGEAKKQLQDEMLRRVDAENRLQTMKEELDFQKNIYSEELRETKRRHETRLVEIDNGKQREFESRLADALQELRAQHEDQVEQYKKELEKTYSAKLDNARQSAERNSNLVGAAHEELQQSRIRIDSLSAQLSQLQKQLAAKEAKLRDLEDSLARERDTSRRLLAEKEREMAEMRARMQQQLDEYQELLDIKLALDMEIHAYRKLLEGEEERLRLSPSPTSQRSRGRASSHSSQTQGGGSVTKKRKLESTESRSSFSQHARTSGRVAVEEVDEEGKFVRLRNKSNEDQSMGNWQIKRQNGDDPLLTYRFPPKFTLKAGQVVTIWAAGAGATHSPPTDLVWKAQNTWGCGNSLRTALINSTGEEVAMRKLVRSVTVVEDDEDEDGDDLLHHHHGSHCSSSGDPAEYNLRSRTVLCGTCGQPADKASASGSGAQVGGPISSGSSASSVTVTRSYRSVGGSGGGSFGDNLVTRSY
substance,measurement,value
plectin 1 (natural protein),increase of PLA signal relative to non-stimulated cells,64%
